Measured values: publication PMC7523096 (bioRxiv, 2020)

Legend:
Assay in all cases: BLI
[1] = target: SARS-CoV-2 N-terminal domain-NTD (residue 1-290) (SARS-CoV-2, Wuhan-Hu-1 (MN908947), UniProt P0DTC2)
[2] = target: SARS-CoV-2 receptor-binding domain-RBD (residue 320-527) (SARS-CoV-2, Wuhan-Hu-1 (MN908947), UniProt P0DTC2)
[3] = target: SARS-CoV-2 RBD-SD1 (residue 320-591) (SARS-CoV-2, Wuhan-Hu-1 (MN908947), UniProt P0DTC2)
[4] = target: SARS-CoV-2 RBD-SD1-2 (residue 320-681) (SARS-CoV-2, Wuhan-Hu-1 (MN908947), UniProt P0DTC2)

Measured: binding result

B1: CC40.8 mAb (IgG) (antibody, V domains shown)
VH: EVQLLESGGGLVQPGGSLRLSCAASGFTFSSYVMTWARQAPGKGLEWVSAISGTGYTYYADSVKGRFTVSRDNSKNTLFLQMSSLRAEDTAVYYCAITMAPVVWGQGTTVTVSS
VL: SYELTQPPSVSVSPGQTARITCSGDALPKRYAYWYQQKSGQAPILVIYEDKKRPSGIPERLSGSKSGTVATLTISGAQVEDEADYYCYSTDSSGNHAVFGGGTQLTVL
no binding: all assays above

B2: second SARS-CoV-2/HCoV-HKU1 cross-reactive mAb from the CC40 donor (other than CC40.8; name not printed in the text) (antibody, V domains shown)
VH: EVQLVESGGGVVQPGRSLRLSCVASGFTFSNYGMHWVRQAPGKGLEWVAVMSYDGSVTYYGDSVRGRFTISRDNSKNTLYLQMSSLRTDDTGVYYCAKGQPLDDIWGLGTLVTVSS
VL: EIVMTQSPLSLPVSLGQSASISCRSSQSLVHTDGITYLSWFQQRPGQSPRRLLYKVSNRDSGVPDRFSGSGSGTDFTLKISRVEAEDVGVYYCLQGTYWPWTFGQGTKVEIK
no binding: all assays above

B3: CC9.1 mAb (antibody, V domains shown)
VH: EVQLVESGGGLVQPGRSLRLSCVAPGFTLGGYGMHWVRQAPGKGLEWVGLISYDGSVQKYGSSVKGRFTISKDNSKNTLYLEMNSLRADDTAVYFCVKGASLGDNWGQGTLVTVSS
VL: EIVMTQSPLSLPVTLGQPASISCRSSQSLVYSDGDTYMSWFHQRPGQSPRRLIYKVSNRDSGVPDRFSGSGSGTDFTLKISRVEAEDVGVYYCMQGTHWPYTFGPGTKVEIK
no binding: all assays above

B4: CC9.2 mAb (IgG) (antibody, V domains shown)
VH: EVQLVESGGGLVQPGRSLRLSCVAPGFTLGGYGMHWVRQAPGKGLEWVGLISYDGSVQKYGSSVKGRFTISKDNSKNTLYLEMNSLRADDTAVYFCVKGASLGDNWGQGTLVTVSS
VL: EIVMTQSPLSLPVTLGQPASISCRSSQSLVYSDGDTYMSWFHQRPGQSPRRLIYKVSNRDFGVPDRFSGSGSGTDFTLKISRVEAEDVGVYYCMQGTHWPYTFGPGTKVEIK
no binding: all assays above

B5: CC9.3 mAb (IgG) (antibody, V domains shown)
VH: QVQLQESGPGLVKPSETLSLTCTVSGGSIRSDFWSWIRQFPGKGLEWIGYIYYSGSTNYNPSLESRVTISVDTSKNEFSLKLNYVTAADTAIYYCARETRWNWLDSWGQGTLVTVSS
VL: DIVMTQSPDSLAVSLGERASINCKSSQTISYISNNKNYLAWYQQKPGQPPRLLIYWASTRESGVPDRFSGGGFGTDFTLTISSLQAEDVAVYYCQQYFNTPWTFGQGTKVEIK
no binding: all assays above
